27 molecules from patent publication US20250034212A1, “PEPTIDE” (PEPTIDREAM INC., priority 2021, published 2025) can be followed below.

Starred links: 1 amine or outer side, 2 acyl side, 3 side chain; linkers in the order of their positions; H or OH if unused. Positions of bridges follow the written chain, without caps; N, C: chain ends. Non-standard residues stand in square brackets, D forms with d. No end group written: not given here. *: point of attachment. HA‑tag = HA-tag attached to the G end of the C-terminal linker, CC(C)[C@H](NC(=O)[C@H](CC(=O)O)NC(=O)[C@H](Cc1ccc(O)cc1)NC(=O)[C@@H]1CCCN1C(=O)[C@H](Cc1ccc(O)cc1)N*)C(=O)N1CCC[C@H]1C(=O)N[C@@H](CC(=O)O)C(=O)N[C@@H](Cc1ccc(O)cc1)C(=O)N[C@@H](C)C(=O)O; KCOpipzaa = N6-(4-(carboxymethyl)piperazine-1-carbonyl)-L-lysine, O=C(NCCCC[C@H](N[*:1])C(=O)[*:2])N1CCN(CC(=O)[*:3])CC1; Phe(3-guanidino) = 3-[(aminoiminomethyl)amino]-L-phenylalanine, N=C(N)Nc1cccc(C[C@H](N[*:1])C(=O)[*:2])c1; CH3O(CH2CH2O)7C2H4CO = COCCOCCOCCOCCOCCOCCOCCOCCC(=O)*; Phe(4-guanidino) = N=C(N)Nc1ccc(C[C@H](N)C(=O)O)cc1; Trp(6-aza) = N[C@@H](Cc1c[nH]c2cnccc12)C(=O)O; Trp(7-aza) = N[C@@H](Cc1c[nH]c2ncccc12)C(=O)O; 1Nal = N[C@@H](Cc1cccc2ccccc12)C(=O)O; Gly(NCH2CH2Ph) = O=C(O)CNCCc1ccccc1; 3Pal = N[C@@H](Cc1cccnc1)C(=O)O; 4Pal = N[C@@H](Cc1ccncc1)C(=O)O

One may read the Kd as the equilibrium constant for the complex coming apart.

For one test, the target named is T1, recombinant human TGF-β1 (Homo sapiens, UniProt P01137).
T1 construct: purchased R&D systems
The test is described as follows: ELISA of HA-tagged peptides with TGF-β1 beads. The test is classed as binding. The following applies: for Activity of binding to TGF-β: relative value with binding of peptide TGFb1_061 (SEQ ID NO: 62) to TGF-β1 set to 100%, HA-tagged peptides, TGF-β1 beads ELISA. The source says:
In this Example, ELISA was used to evaluate the binding between TGF-β1 and each of various peptides consisting of the amino acid sequences set forth in SEQ ID NOs: 34-69 synthesized in Examples 6 and 7. An HA-tag was attached to the G end of the C-terminal linker of the peptide consisting of the amino acid sequence set forth in SEQ ID NOs: 34-69. As used herein, the “HA-tag” means the amino acid sequence of PEG10[…] (SEQ ID NO: 70).
The binding activity of each peptide to TGF-β1 was examined by ELISA using the peptide consisting of the amino acid sequence set forth in SEQ ID NOs: 34-69 having an HA-tag attached and TGF-β1 beads.
Recombinant human TGF-β1 (R&D Systems) was immobilized on Dynabead M-270 Carboxylic Acid (Thermo fisher scientific) to prepare TGF-β1 beads. The immobilization reaction was performed using the Amine Coupling kit (DOJINDO LABORATORIES).
TGF-β1 beads and each peptide having the HA-tag sequence attached at the C-terminus were reacted in PBS (PBS-T) containing 0.1% Tween 20 (NACALAI TESQUE, INC.) for 1 hour and then washed by PBS-T. To detect the peptide bound to the TGF-β1 beads, an anti-HA-tag mAb-HRP-DirecT (MBL) and the TGF-β1 beads were reacted in PBS-T containing 1% BSA for 30 min. After washing with PBST, a SureBlue TMB Microwell Peroxidase Substrate (Kirkegaard & Perry Laboratories) was added for coloration for 10 min. TMB stop solution (Kirkegaard & Perry Laboratories) was then added to stop the coloration reaction. An EnSpire (Perkin Elmer) was used to measure absorbance.
Note that the binding activity was expressed as a relative value when the ability of binding the peptide TGFb1_061 (SEQ ID NO: 62) to TGF-β1 was set to 100%.

In test [1] the target is T2, recombinant human TGF-β1 (R&D systems) (human, UniProt P01137 279-390). The test is described as follows: cell-based or functional assay.
For test [2], the target named is T2, recombinant human TGF-β1 (R&D systems). Put plainly: SPR, TGF-β1 immobilised, single cycle kinetics. The protocol:
Subsequently, 50 μL of 60 mM EDC solution (Global Life Science Technologies Japan Co., Ltd.) and 50 μL of 650 mM NHS solution (Global Life Science Technologies Japan Co., Ltd.) were mixed. Next, the reaction was carried out at a flow rate of 10 μL/min for 420 seconds. Then, 150 μL of 0.2 μM TGF-β solution diluted in 10 mM acetic acid solution (pH 5.0) was prepared and reacted at a flow rate of 10 μL/min for 420 seconds to immobilize TGF-β on the CM3 sensor chip. TGF-β was human-derived TGF-β1 or β2 (recombinant human TGF-β1, 2) and was obtained from R&D systems. After immobilization, capping was performed by reacting with 1.0 M ethanolamine aqueous solution (Global Life Science Technologies Japan Co., Ltd.) at a flow rate of […] for 420 seconds.
A liquid prepared by dissolving each peptide at 10 mM in DMSO solution was diluted with running buffer to prepare a peptide-dissolved solution at a final concentration of 10 μM. Subsequently, 50 nM, 25 nM, 12.5 nM, 5 nM, and 2.5 nM peptide solutions were prepared. Using the above samples, the kinetics of each peptide against TGF-β was obtained by SPR measurement.
The kinetics evaluation model was Single Cycle Kinetics, and curve fitting was performed using Biacore T200 Evaluation Software Version 3.0 (Global Life Science Technologies Japan Co., Ltd.). The binding of various peptides to TGF-β was evaluated by performing least-squares curve fitting on the obtained sensorgram to calculate the KD value.
(In general: Surface plasmon resonance follows binding to a sensor surface in real time, without labels.)

The target is the same in test [3]. Put plainly: cell-based or functional assay. The source holds these as a separate data set.

T2 sequence (P01137 279-390 limits assumed): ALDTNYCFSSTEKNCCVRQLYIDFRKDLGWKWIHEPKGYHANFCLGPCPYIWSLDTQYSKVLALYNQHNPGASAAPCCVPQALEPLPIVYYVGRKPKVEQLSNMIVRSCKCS
T1 sequence (P01137 279-390 limits assumed): as above

In the case of “63 ({CH2CO}-F[1Nal]VVNVKDD[Gly(NCH2CH2Ph)]V[1Nal]YHVCG; thioether N-16; also: HA-tag) [compound 63]”, the “Activity of binding to TGF-β” value in the test with recombinant human TGF-β1 was determined as 102%. Consider “54 ({CH2CO}-F[1Nal]VVNV[Phe(4-guanidino)]DD[Gly(NCH2CH2Ph)]V[1Nal]YHVCG; thioether N-16; also: HA-tag) [compound 54]”, for which, in the test with recombinant human TGF-β1, the “Activity of binding to TGF-β” value stood at 87%. With “56 ({CH2CO}-FWVVNVYDD[Gly(NCH2CH2Ph)]V[1Nal]YHVCG; thioether N-16; also: HA-tag) [compound 56]”, in the test with recombinant human TGF-β1, the “Activity of binding to TGF-β” value stood at 90%. Take “67 ({CH2CO}-F[1Nal]VVNVYDE[Gly(NCH2CH2Ph)]V[1Nal]YHVCG; thioether N-16; also: HA-tag) [compound 67]”: the “Activity of binding to TGF-β” value with recombinant human TGF-β1 turned out to be 116%. Same read-out and setting: next, “59 ({CH2CO}-F[1Nal]VVNVYDD[Gly(NCH2CH2Ph)]V[1Nal][3Pal]HVCG; thioether N-16; also: HA-tag) [compound 59]”: 95%; “60 ({CH2CO}-F[1Nal]VVNVYDQ[Gly(NCH2CH2Ph)]V[1Nal]YHVCG; thioether N-16; also: HA-tag) [compound 60]”: 95%. Same read-out and setting: next, “51 ({CH2CO}-F[1Nal]VKNVYDD[Gly(NCH2CH2Ph)]V[1Nal]YHVCG; thioether N-16; also: HA-tag) [compound 51]”: 84%; “50 ({CH2CO}-F[1Nal]VVNVYDD[Gly(NCH2CH2Ph)]V[1Nal]YHQCG; thioether N-16; also: HA-tag) [compound 50]”: 81%; “64 ({CH2CO}-F[1Nal]VVNVYDK[Gly(NCH2CH2Ph)]V[1Nal]YHVCG; thioether N-16; also: HA-tag) [compound 64]”: 102%. As for “68 ({CH2CO}-F[1Nal]VVNV[4Pal]DD[Gly(NCH2CH2Ph)]V[1Nal]YHVCG; thioether N-16; also: HA-tag) [compound 68]”, the “Activity of binding to TGF-β” value with recombinant human TGF-β1 turned out to be 119%.

Take “58 ({CH2CO}-F[1Nal]VVNVYED[Gly(NCH2CH2Ph)]V[1Nal]YHVCG; thioether N-16; also: HA-tag) [compound 58]”: in the test with recombinant human TGF-β1, the “Activity of binding to TGF-β” value is given as 93%.

With “65 ({CH2CO}-F[1Nal]VVNV[Phe(3-guanidino)]DD[Gly(NCH2CH2Ph)]V[1Nal]YHVCG; thioether N-16; also: HA-tag) [compound 65]”, the “Activity of binding to TGF-β” value in the test with recombinant human TGF-β1 was 104%.

Regarding “61 ({CH2CO}-F[1Nal]VVNVYKD[Gly(NCH2CH2Ph)]V[1Nal]YHVCG; thioether N-16; also: HA-tag) [compound 61]”, the “Activity of binding to TGF-β” value with recombinant human TGF-β1 was found to be 98%. For “66 ({CH2CO}-F[Trp(7-aza)]VVNVYDD[Gly(NCH2CH2Ph)]V[1Nal]YHVCG; thioether N-16; also: HA-tag) [compound 66]”, in the test with recombinant human TGF-β1, the “Activity of binding to TGF-β” value turned out to be 106%. On the same count and under the same terms, next, “69 ({CH2CO}-F[1Nal]VVNV[3Pal]DD[Gly(NCH2CH2Ph)]V[1Nal]YHVCG; thioether N-16; also: HA-tag) [compound 69]”: 140%.

On to “52 ({CH2CO}-F[Trp(6-aza)]VVNVYDD[Gly(NCH2CH2Ph)]V[1Nal]YHVCG; thioether N-16; also: HA-tag) [compound 52]”, for which the “Activity of binding to TGF-β” value with recombinant human TGF-β1 is on record as 85%. Consider “TGFb1_061: cyclic peptide of Table 4 with G linker and HA-tag; ELISA reference set to 100% ({CH2CO}-F[1Nal]VVNVYDD[Gly(NCH2CH2Ph)]V[1Nal]YHVCG-{HA‑tag}; thioether N-16)”, for which the “activity of binding to TGF-β, relative value” with recombinant human TGF-β1 (ELISA, relative to TGFb1_061 (SEQ ID NO: 62) set to 100%, HA-tag attached) is 100%. “49 ({CH2CO}-F[1Nal]VVNVYDD[Gly(NCH2CH2Ph)]V[1Nal][4Pal]HVCG; thioether N-16; also: HA-tag) [compound 49]”: the “Activity of binding to TGF-β” value with recombinant human TGF-β1 is listed as 80%.

For “62 ({CH2CO}-F[1Nal]VVNVYDD[Gly(NCH2CH2Ph)]V[1Nal]YHVCG; thioether N-16; also: HA-tag) [compound 62]”, the “Activity of binding to TGF-β” value in the test with recombinant human TGF-β1 is given as 100%. With “55 ({CH2CO}-F[1Nal]VVNVYDD[Gly(NCH2CH2Ph)]V[1Nal]YHECG; thioether N-16; also: HA-tag) [compound 55]”, the “Activity of binding to TGF-β” value in the test with recombinant human TGF-β1 is 89%. On the same count and under the same terms, next, “48 ({CH2CO}-F[1Nal]VVNVEDD[Gly(NCH2CH2Ph)]V[1Nal]YHVCG; thioether N-16; also: HA-tag) [compound 48]”: 80%; “57 ({CH2CO}-F[1Nal]VVNVQDD[Gly(NCH2CH2Ph)]V[1Nal]YHVCG; thioether N-16; also: HA-tag) [compound 57]”: 90%. Turning to “53 ({CH2CO}-F[1Nal]VVNVYDDKV[1Nal]YHVCG; thioether N-16; also: HA-tag) [compound 53]”, the “Activity of binding to TGF-β” value with recombinant human TGF-β1 turned out to be 86%.

B1: TGFb1_001 (peptide)
peptide: {CH2CO}-F[1Nal]VVNVYDD[Gly(NCH2CH2Ph)]V[1Nal]YHVCG
modifications: thioether N-16
notes: cyclic peptide; C-terminal G is a linker
With B1, in test [1], the “SBE reporter % inhibition, peptide 0.075 nM” value worked out at 19.7%; the “SBE reporter % inhibition, peptide 0.75 nM” value worked out at 69.7%; the “SBE reporter % inhibition, peptide 7.5 nM” value was determined as 98.1%; the “SBE reporter % inhibition, peptide 75.0 nM” value worked out at 101%. In addition, in test [2], the Kd came to 0.55 nM. Regarding {CH2CO}-F[1Nal]VVNVYDD[Gly(NCH2CH2Ph)]V[1Nal]YHVC (thioether N-16, cyclic peptide) [TGFb1_002], in test [2], the Kd is 0.46 nM.

B2: TGFb1_031 (peptide)
peptide: {CH2CO}-F[1Nal]VVNV[4Pal]DD[Gly(NCH2CH2Ph)]V[1Nal]YH[KCOpipzaa]CGK(CH3O(CH2CH2O)7C2H4CO)-NH2
modifications: thioether N-16
SMILES: COCCOCCOCCOCCOCCOCCOCCOCCC(=O)NCCCC[C@H](NC(=O)CNC(=O)[C@@H]1CSCC(=O)N[C@@H](Cc2ccccc2)C(=O)N[C@@H](Cc2cccc3ccccc23)C(=O)N[C@@H](C(C)C)C(=O)N[C@@H](C(C)C)C(=O)N[C@@H](CC(N)=O)C(=O)N[C@@H](C(C)C)C(=O)N[C@@H](Cc2ccncc2)C(=O)N[C@@H](CC(=O)O)C(=O)N[C@@H](CC(=O)O)C(=O)N(CCc2ccccc2)CC(=O)N[C@@H](C(C)C)C(=O)N[C@@H](Cc2cccc3ccccc23)C(=O)N[C@@H](Cc2ccc(O)cc2)C(=O)N[C@@H](Cc2c[nH]cn2)C(=O)N[C@@H](CCCCNC(=O)N2CCN(CC(=O)O)CC2)C(=O)N1)C(N)=O
notes: cyclic peptide; linker G K(MePEG8c) at the C-terminus
Take B2: in test [3], the “SBE reporter % inhibition, peptide 0.062 nM” value turned out to be 9.29%; the “SBE reporter % inhibition, peptide 0.185 nM” value came to 20.1%; the “SBE reporter % inhibition, peptide 0.56 nM” value came out at 51.9%; the “SBE reporter % inhibition, peptide 1.7 nM” value was 84.9%. In test [3], the “SBE reporter % inhibition, peptide 5.0 nM” value is 96.7% and the “SBE reporter % inhibition, peptide 15.0 nM” value was determined as 99.1%.

B3: TGFb1_004 (peptide)
peptide: {CH2CO}-F[Trp(6-aza)]VVNVYDD[Gly(NCH2CH2Ph)]V[1Nal]YHVCG
modifications: thioether N-16
notes: as for B1
Turning to B3, in test [1], the “SBE reporter % inhibition, peptide 0.075 nM” value came out at 0%; the “SBE reporter % inhibition, peptide 0.75 nM” value came to 0.9%; the “SBE reporter % inhibition, peptide 7.5 nM” value is 70.1%; the “SBE reporter % inhibition, peptide 75.0 nM” value was determined as 94.9%. For the same molecule, the equilibrium dissociation constant (Kd) in test [2] is 1.49 nM.
